The values below come from US8551493B2, “Peptide with reduced dimer formation” (Circassia Limited, priority 2007, dated 2013).

The test system of data set [1] is PBMCs. The data set is described as follows: IL-10 cytokine release assay on PBMCs from seven ragweed allergic individuals. In kind it is cell-based, human. As to conditions: for IL-10: ragweed allergic, PBMC supernatant. The text has this:
The following Table presents results from a cytokine release assay performed on PBMCs taken from seven ragweed allergic individuals (A-G).

For data set [2], the system named is PBMCs. In words: IFN-gamma production by PBMCs from ragweed allergic individuals (FIG. 2). The class given is cell-based, human. As to conditions: PBMCs from a population of ragweed allergic individuals. As to the method:
Using methods equivalent to those in Example 2, these peptides were tested for the ability to induce cytokine production in PBMCs taken from a population of ragweed allergic individuals.

Data set [3] relates to PBMCs. The data set is described as follows: Cytokine release assay (IFN-γ, IL-13) on PBMCs from house dust mite allergic individuals. In kind it is cell-based, human. Conditions: number of responders, N = 55 house dust mite allergic individuals; positive = at least 100 pg/ml of cytokine. From the text:
The following Table presents results from a cytokine release assay performed on PBMCs taken from a population of house dust mite allergic individuals (N=number of individuals in population). A positive response is considered to be production of at least 100 pg/ml of cytokine.

The nature of data set [4]: Dimer formation of individual peptides and binary peptide mixtures, RP-HPLC. The class given is physicochemical. As to the method: The peptides used in this study have a minimum purity of >90%. The effectiveness of each additive to reduce dimer formation was assessed by size exclusion chromatography (SEC) and RP-HPLC. In SEC, molecules are separated based upon their apparent molecular weight. Smaller molecules can distribute into a greater proportion of the column matrix and are retained for longer than analytes of higher molecular weight. Dimers will elute from the column with an apparent molecular weight approximately twice that of the corresponding monomers. Separation by RP-HPLC separates species based on differences in their hydrophobicities. The amount of dimer formed is determined as a percentage of the total peak area ratio (% PAR) for the chromatogram.
Following the generation of data from the preliminary screening a further piece of work was undertaken to evaluate the ability of matrices containing Cysteine hydrochloride and 1-thioglycerol to inhibit the propensity of individual cysteine containing peptides and mixed pairs of these peptides to dimerize compared to the matrix alone. For each excipient mixtures of all the possible binary peptide combinations were prepared. […] The amount of dimer formed is determined as a percentage of the total peak area ratio (% PAR) for the chromatogram in each case.

The test system of data set [5] is PBMCs. In words: IL10 production assay in house dust mite allergic individuals (FIG. 1). In kind it is cell-based, human. Conditions: population of 34 house dust mite allergic individuals.
Protocol: A typical cytokine release assay requires 40×10^6 PBMC's per subject. In more detail, 250 μl of a 200 μg/ml solution of the appropriate antigen or peptide concentration is distributed into the appropriate wells of 48 well plates. Plates are the incubated in a humidified 5% CO2 incubator at 37° C. for a maximum of 4 hours. 250 μl of a 5×10^6 cell/ml PBMC suspension is then added to each well and the plates returned to the incubator for 5 days. Following stimulation, samples of culture supernatant are harvested for testing by ELISA or multiplex bead assay according to standard protocols.
The mark [6] stands for this setting: T = 0, Control matrix, individual peptide sample.
The mark [7] stands for this setting: T = 0, Control matrix, mixed sample MLA01 and MLA05.
The mark [8] stands for this setting: T = 1 week, 25° C./60% RH, Control matrix, individual peptide sample.
The mark [9] stands for this setting: T = 1 week, 25° C./60% RH, Control matrix, mixed sample MLA01 and MLA04.
[10] abbreviates: T = 1 week, 25° C./60% RH, Control matrix, mixed sample MLA01 and MLA05.
Where [11] appears, read: T = 1 week, 25° C./60% RH, Control matrix, mixed sample MLA01 and MLA12.
[12] abbreviates: T = 1 week, 25° C./60% RH, Cysteine matrix, mixed sample MLA01 and MLA12.
[13] abbreviates: T = 72 h, Control matrix, individual peptide sample.
[14] abbreviates: T = 72 h, Control matrix, mixed sample MLA01 and MLA04.
Setting [15] is: T = 72 h, Control matrix, mixed sample MLA01 and MLA05.
Setting [16] is: T = 72 h, Control matrix, mixed sample MLA01 and MLA12.
The mark [17] stands for this setting: T = 1 week, 25° C./60% RH, Control matrix, mixed sample MLA04 and MLA05.
[18] abbreviates: T = 1 week, 25° C./60% RH, Control matrix, mixed sample MLA05 and MLA12.
Where [19] appears, read: T = 72 h, Control matrix, mixed sample MLA04 and MLA05.
Where [20] appears, read: T = 72 h, Control matrix, mixed sample MLA05 and MLA12.
The mark [21] stands for this setting: T = 1 week, 25° C./60% RH, Control matrix, mixed sample MLA04 and MLA12.
Where [22] appears, read: T = 72 h, Control matrix, mixed sample MLA04 and MLA12.

Where no end group is shown, it is not given here. [ ]: non-standard residue; d: D form. Abu = CC[C@H](N)C(=O)O

On to “RGW02: engineered (modified) peptide derived from ragweed pollen major allergen Amb a 1 (GSSQIWIDHSSLSKS; RGW02* synthetic peptide)”, for which the “IL-10” value in the data set with PBMCs [1] (Subject A) came to 248.91 pg/mL; with PBMCs [1] (Subject B), 227.18 pg/mL; in the data set on PBMCs [1] (Subject C), 452.45 pg/mL; in the data set on PBMCs [1] (Subject D) it was 80.54 pg/mL; in the data set on PBMCs [1] (Subject E), 310.34 pg/mL; in the data set on PBMCs [1] (Subject F) it was 203.12 pg/mL. Further, the “IL-10” value in the data set on PBMCs [1] (Subject G) was 283.75 pg/mL. In addition, the “level of production of IL-10 compared with the original peptide (RGW02A)” value with PBMCs [1] (seven ragweed allergic individuals (A-G)) was “not significantly different”. Moreover, the “IFN-gamma production compared with the non-engineered peptide” value with PBMCs [2] is listed as “does not induce significantly different responses”.
Regarding “RFGISNYBQIYPPNVNK (RFGISNY[Abu]QIYPPNVNK) [HDM100B, B=2-aminobutyric acid]”, in the data set with PBMCs [3], the “Responders with IFN-g >100” value is given as 6 and the “Responders with IL-13 >100” value is recorded as 10.
As for “NAQRFGISNYBQI (NAQRFGISNY[Abu]QI) [HDM102B, B=2-aminobutyric acid]”, in the data set with PBMCs [3], the “Responders with IFN-g >100” value came out at 15 and the “Responders with IL-13 >100” value was 17.
For NAQRFGISNYSQI [HDM102A], in the data set with PBMCs [3], the “Responders with IFN-g >100” value is 14 and the “Responders with IL-13 >100” value stood at 16.
The corresponding values for NYSQIYPPNVNKIREA [HDM101A] are 4 and 4.
“NYBQIYPPNVNKIREA (NY[Abu]QIYPPNVNKIREA) [HDM101B, B=2-aminobutyric acid]”: in the data set on PBMCs [3], the “Responders with IFN-g >100” value was determined as 1 and the “Responders with IL-13 >100” value was determined as 2.
On to “CPAVKRDVDLFLT (listed as Felis catus) [MLA01, derived from cat allergen Fel d1]”, for which the “Percentage peak area ratio (% PAR), dimers formed” value (shortened to “Percentage peak area ratio (% PAR)”) in data set [4] (setting [6]) is listed as 3.85 % PAR; in data set [4] (T = 0, Control matrix, mixed sample MLA01 and MLA04) it was 2.92 % PAR; in data set [4] (setting [7]), 2.73 % PAR; in data set [4] (T = 0, Control matrix, mixed sample MLA01 and MLA12) it was 2.7 % PAR; in data set [4] (T = 0, Cysteine matrix, individual peptide sample), 0.49 % PAR; in data set [4] (T = 0, Cysteine matrix, mixed sample MLA01 and MLA04), 0.48 % PAR. The “Percentage peak area ratio (% PAR)” value in data set [4] (T = 0, Cysteine matrix, mixed sample MLA01 and MLA05) is 0.73 % PAR; in data set [4] (T = 0, Cysteine matrix, mixed sample MLA01 and MLA12) it was 0.2 % PAR; in data set [4] (setting [8]), 66.81 % PAR; in data set [4] (setting [9]) it was 39.49 % PAR; in data set [4] (setting [10]) it was 45.59 % PAR; in data set [4] (setting [11]), 40.03 % PAR. In addition, the “Percentage peak area ratio (% PAR)” value in data set [4] (T = 1 week, 25° C./60% RH, Cysteine matrix, mixed sample MLA01 and MLA04) is recorded as 0.52 % PAR; in data set [4] (T = 1 week, 25° C./60% RH, Cysteine matrix, mixed sample MLA01 and MLA05), 0.26 % PAR; in data set [4] (setting [12]), 0.23 % PAR; in data set [4] (setting [13]) it was 43.81 % PAR; in data set [4] (setting [14]), 35.47 % PAR; in data set [4] (setting [15]), 41.11 % PAR. For the same substance, the “Percentage peak area ratio (% PAR)” value in data set [4] (setting [16]) is on record as 29.62 % PAR.
As to NYCQIYPPNVNKIREA [HDM101], in the data set on PBMCs [3], the “Responders with IFN-g >100” value was 2 and the “Responders with IL-13 >100” value was found to be 1.
Turning to “RILKNCVDAKMTEEDKE (listed as Felis catus) [MLA05, derived from cat allergen Fel d1]”, the “Percentage peak area ratio (% PAR)” value in data set [4] (setting [6]) stood at 0.55 % PAR; in data set [4] (setting [7]), 0.35 % PAR; in data set [4] (setting [8]), 1.65 % PAR; in data set [4] (setting [10]), 3.18 % PAR; in data set [4] (setting [17]), 3.26 % PAR; in data set [4] (setting [18]), 1.85 % PAR. Further, the “Percentage peak area ratio (% PAR)” value is given as 0.21 % PAR in data set [4] (T = 1 week, 25° C./60% RH, Cysteine matrix, individual peptide sample); 1.99 % PAR in data set [4] (setting [13]); 2.21 % PAR in data set [4] (setting [15]); 2.25 % PAR in data set [4] (setting [19]); 8.17 % PAR in data set [4] (setting [20]).
For the substance NAQRFGISNYCQI [HDM102], in the data set on PBMCs [3], the “Responders with IFN-g >100” value was 16 and the “Responders with IL-13 >100” value was 13.
RFGISNYCQIYPPNVNK [HDM100]: in the data set with PBMCs [3], the “Responders with IFN-g >100” value is listed as 6 and the “Responders with IL-13 >100” value was 6.
“HDM203B: house dust mite Der p1 derived peptide of the HDM203 family tested for IL10 production (DLRQMRTVTPIRMQGGSGS; HDM203B* synthetic peptide)”: the “IL10 production, engineered versus non-engineered peptides” value in the data set on PBMCs [5] was “not significantly different”.
In the case of “KALPVVLENARILKNCV (listed as Felis catus) [MLA04, derived from cat allergen Fel d1]”, the “Percentage peak area ratio (% PAR)” value in data set [4] (setting [8]) turned out to be 4.76 % PAR; in data set [4] (setting [9]), 2.71 % PAR; in data set [4] (setting [17]) it was 2.32 % PAR; in data set [4] (setting [21]), 2.42 % PAR; in data set [4] (setting [13]), 2.51 % PAR; in data set [4] (setting [14]), 1.32 % PAR. Also, the “Percentage peak area ratio (% PAR)” value in data set [4] (setting [19]) is recorded as 0.91 % PAR; in data set [4] (setting [22]), 0.44 % PAR.
As for “TAMKKIQDCYVENGLI (listed as Felis catus) [MLA12, derived from cat allergen Fel d1]”, the “Percentage peak area ratio (% PAR)” value in data set [4] (setting [8]) is on record as 1.72 % PAR; in data set [4] (setting [11]), 3.43 % PAR; in data set [4] (setting [21]) it was 2.13 % PAR; in data set [4] (setting [18]), 1.28 % PAR; in data set [4] (setting [12]), 0.18 % PAR; in data set [4] (T = 1 week, 25° C./60% RH, Cysteine matrix, mixed sample MLA04 and MLA12) it was 0.32 % PAR. Further, the “Percentage peak area ratio (% PAR)” value in data set [4] (setting [13]) is 0.46 % PAR; in data set [4] (setting [16]), 2.09 % PAR; in data set [4] (setting [22]) it was 1.1 % PAR; in data set [4] (setting [20]), 9.78 % PAR; in data set [4] (T = 72 h, Cysteine matrix, mixed sample MLA01 and MLA12) it was 0.1 % PAR; in data set [4] (T = 72 h, Cysteine matrix, mixed sample MLA04 and MLA12), 0.33 % PAR.
For the substance RFGISNYSQIYPPNVNK [HDM100A], in the data set on PBMCs [3], the “Responders with IFN-g >100” value is reported as 10 and the “Responders with IL-13 >100” value is 8.
